The labels stand for the following.
T1: HLA-DP molecule DPB1*0401 (human)
T1 chain 1: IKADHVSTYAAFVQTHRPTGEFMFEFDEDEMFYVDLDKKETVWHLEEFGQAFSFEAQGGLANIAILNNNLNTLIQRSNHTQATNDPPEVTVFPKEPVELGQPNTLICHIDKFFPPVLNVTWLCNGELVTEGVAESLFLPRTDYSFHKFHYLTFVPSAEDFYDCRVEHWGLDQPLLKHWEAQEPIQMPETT
T1 chain 2: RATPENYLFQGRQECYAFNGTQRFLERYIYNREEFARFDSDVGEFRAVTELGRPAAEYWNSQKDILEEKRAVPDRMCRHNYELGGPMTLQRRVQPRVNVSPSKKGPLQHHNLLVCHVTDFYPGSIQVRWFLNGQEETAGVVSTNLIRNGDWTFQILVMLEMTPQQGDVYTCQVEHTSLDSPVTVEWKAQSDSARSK

Broadly, the IC50 is the concentration that inhibits the measured activity by half. Read a high IC50 as a need for much substance.

In the first experiment the target is HLA DQ molecule DQB1*0502 (human). The experiment can be described thus: inhibition of radiolabeled peptide binding to purified HLA class II.
DEYVEQVAQYKALPV [Fel d 1 1 (41-55) peptide DEYVEQVAQYKALPV, Peptide ID 3324.1049] displayed an IC50 of 0.337 µM.

Consider GSCWAFSGVAATESA [Der f 1 (131-145) peptide GSCWAFSGVAATESA, Peptide ID 3324.0670], for which the IC50 was determined as 9.32 µM. Compared with the last molecule, the IC50 is about 28-fold higher.

With FSGVAATESAYLAYR [Der f 1 (136-150) peptide FSGVAATESAYLAYR, Peptide ID 3324.0666], the IC50 was found to be 1.21 µM.

For another experiment, the target named is HLA DQ molecule DQB1*0503 (human). Described as above.
For NALSVLDKIYTSPLC [Fel d 1 1 (78-92) peptide NALSVLDKIYTSPLC, Peptide ID 3324.1050], the IC50 came out at 5.83 µM.

On to GSCWAFSGVAATESA [Der f 1 (131-145) peptide GSCWAFSGVAATESA, Peptide ID 3324.0670], for which the 50% inhibitory concentration (IC50) came out at 7.93 µM.

In the case of FSGVAATESAYLAYR [Der f 1 (136-150) peptide FSGVAATESAYLAYR, Peptide ID 3324.0666], the concentration for half-maximal inhibition (IC50) was 4.19 µM. This IC50 lies about 1.9-fold lower than the previous one.

The target of another experiment is HLA DQ molecule DQB1*0602 (human). The description is as above.
On to NALSVLDKIYTSPLC [Fel d 1 1 (78-92) peptide NALSVLDKIYTSPLC, Peptide ID 3324.1050], for which the IC50 was 1 µM.

On to DEYVEQVAQYKALPV [Fel d 1 1 (41-55) peptide DEYVEQVAQYKALPV, Peptide ID 3324.1049], for which the half-maximal inhibitory concentration (IC50) came to 0.14 µM.

Turning to GSCWAFSGVAATESA [Der f 1 (131-145) peptide GSCWAFSGVAATESA, Peptide ID 3324.0670], the IC50 was found to be 1.33 µM. Against the preceding molecule, the IC50 is about 9.5-fold higher.

For the molecule FSGVAATESAYLAYR [Der f 1 (136-150) peptide FSGVAATESAYLAYR, Peptide ID 3324.0666], the IC50 amounted to 2.02 µM.

The target in a further experiment is HLA DQ molecule DQB1*0202 (human). The description is as above.
For DSYKFIPTLVAAVKQ [Lol p 5 1 peptide, position 236, DSYKFIPTLVAAVKQ (Peptide ID 3324.1165)], the IC50 turned out to be 5.86 µM. This counts as single-digit micromolar.

IAFFRKEPLKECGGI [Lol p 11 peptide, position 116, IAFFRKEPLKECGGI (Peptide ID 3337.0029)] displayed an IC50 of 26.2 µM.

Consider RYANPIAFFRKEPLK [Lol p 11 peptide, position 111, RYANPIAFFRKEPLK (Peptide ID 3324.1138)], for which the IC50 worked out at 26 µM.

For the molecule PAAAYATATPAAATA [Lol p 5 1 peptide, position 306, PAAAYATATPAAATA (Peptide ID 3324.1184)], the concentration for half-maximal inhibition (IC50) came out at 0.679 µM.

As to SDAKTLVLNIKYTRP [Lol p 3 peptide, position 11, SDAKTLVLNIKYTRP (Peptide ID 3324.1142)], the IC50 is 25.7 µM.

DAYVATLTEALRVIA [Lol p 5 1 peptide, position 151, DAYVATLTEALRVIA (Peptide ID 3324.1167), listing 1 of 2 here] gave an IC50 of 1.8 µM.

Another experiment concerns the target HLA DQ molecule DQB1*0502 (human). The description is as above. This is another data set of the same source.
In turn, DSYKFIPTLVAAVKQ [Lol p 5 1 peptide, position 236, DSYKFIPTLVAAVKQ (Peptide ID 3324.1165)] registered an IC50 of 50 µM.

Regarding IAFFRKEPLKECGGI [Lol p 11 peptide, position 116, IAFFRKEPLKECGGI (Peptide ID 3337.0029)], the IC50 is 1.44 µM.

IKSDKPLKGPFNFRF [Lol p 2 peptide, position 56, IKSDKPLKGPFNFRF (Peptide ID 3324.1140)] showed a concentration for half-maximal inhibition (IC50) of 38.2 µM.

In turn, RYANPIAFFRKEPLK [Lol p 11 peptide, position 111, RYANPIAFFRKEPLK (Peptide ID 3324.1138)] gave an IC50 of 0.793 µM.

PAAAYATATPAAATA [Lol p 5 1 peptide, position 306, PAAAYATATPAAATA (Peptide ID 3324.1184)] had an IC50 of 7.45 µM.

The molecule SDAKTLVLNIKYTRP [Lol p 3 peptide, position 11, SDAKTLVLNIKYTRP (Peptide ID 3324.1142)] gave an IC50 of 50 µM.

With DAYVATLTEALRVIA [Lol p 5 1 peptide, position 151, DAYVATLTEALRVIA (Peptide ID 3324.1167), listing 1 of 2 here], the IC50 is 50 µM.

In the next experiment the target is HLA DQ molecule DQB1*0503 (human). Described as above. This is another data set of the same source.
Consider DSYKFIPTLVAAVKQ [Lol p 5 1 peptide, position 236, DSYKFIPTLVAAVKQ (Peptide ID 3324.1165)], for which the half-inhibitory concentration (IC50) came to 4.64 µM.

IAFFRKEPLKECGGI [Lol p 11 peptide, position 116, IAFFRKEPLKECGGI (Peptide ID 3337.0029)] came in with a half-maximal inhibitory concentration (IC50) of 0.903 µM.

Molecule IKSDKPLKGPFNFRF [Lol p 2 peptide, position 56, IKSDKPLKGPFNFRF (Peptide ID 3324.1140)] returned a half-inhibitory concentration (IC50) of 50 µM. Compared with the last molecule, the IC50 is about 55-fold higher.

In turn, RYANPIAFFRKEPLK [Lol p 11 peptide, position 111, RYANPIAFFRKEPLK (Peptide ID 3324.1138)] registered a 50% inhibitory concentration (IC50) of 1.6 µM.

SDAKTLVLNIKYTRP [Lol p 3 peptide, position 11, SDAKTLVLNIKYTRP (Peptide ID 3324.1142)]: the IC50 amounted to 33.9 µM.

The molecule DAYVATLTEALRVIA [Lol p 5 1 peptide, position 151, DAYVATLTEALRVIA (Peptide ID 3324.1167), listing 1 of 2 here] came in with an IC50 of 50 µM.

A further experiment concerns the target HLA DQ molecule DQB1*0602 (human). The description is as above. The source holds these as a separate data set.
With IAFFRKEPLKECGGI [Lol p 11 peptide, position 116, IAFFRKEPLKECGGI (Peptide ID 3337.0029)], the IC50 was 50 µM.

The molecule IKSDKPLKGPFNFRF [Lol p 2 peptide, position 56, IKSDKPLKGPFNFRF (Peptide ID 3324.1140)] displayed a 50% inhibitory concentration (IC50) of 50 µM. This counts as double-digit micromolar.

Regarding RYANPIAFFRKEPLK [Lol p 11 peptide, position 111, RYANPIAFFRKEPLK (Peptide ID 3324.1138)], the concentration for half-maximal inhibition (IC50) worked out at 9.74 µM.

As to PAAAYATATPAAATA [Lol p 5 1 peptide, position 306, PAAAYATATPAAATA (Peptide ID 3324.1184)], the IC50 worked out at 0.224 µM.

A further experiment addresses HLA-DP molecule DPB1*1401 (human). The experiment can be described thus: inhibition of radiolabeled peptide binding to purified HLA-DP.
Take MRNVFDDVVPADFKV [Lol p 2 peptide, position 76, MRNVFDDVVPADFKV (Peptide ID 3337.0030)]: the half-maximal inhibitory concentration (IC50) came out at 24.2 µM.

LIEKINAGFKAAVAA [Lol p 5 1 peptide, position 71, LIEKINAGFKAAVAA (Peptide ID 3324.1175)] had a half-inhibitory concentration (IC50) of 2.42 µM. Compared with the last molecule, the IC50 is about 10-fold lower.

Molecule DAFIAALTEALRVIA [Pha a 5 peptide, position 121, DAFIAALTEALRVIA (Peptide ID 3324.1432)] showed an IC50 of 29.7 µM.

The molecule ATPEAKFDSFVAAFT [Poa p 5 peptide, position 121, ATPEAKFD5FVAAFT as printed in Table 8 (Peptide ID 3324.1570)] gave a concentration for half-maximal inhibition (IC50) of 2.77 µM.

Consider DAYVATLTEALRVIA [Lol p 5 1 peptide, position 151, DAYVATLTEALRVIA (Peptide ID 3324.1167), listing 2 of 2 here], for which the concentration for half-maximal inhibition (IC50) was 4.4 µM.

The molecule LWEVKSAKPLTGPMN [Lol p 3 peptide, position 51, LWEVKSAKPLTGPMN (Peptide ID 3337.0031)] gave a concentration for half-maximal inhibition (IC50) of 18.6 µM.

Another experiment concerns the target HLA-DP molecule DPB1*2001 (human). The description is as above.
Turning to MRNVFDDVVPADFKV [Lol p 2 peptide, position 76, MRNVFDDVVPADFKV (Peptide ID 3337.0030)], the half-maximal inhibitory concentration (IC50) turned out to be 0.082 µM.

With DINVGFKAAVAAAAG [Poa p 5 peptide, position 56, DINVGFKAAVAAAAG (Peptide ID 3324.1571)], the IC50 turned out to be 0.295 µM.

For the molecule FKAAVAAAAGAPPAD [Poa p 5 peptide, position 61, FKAAVAAAAGAPPAD (Peptide ID 3324.1575)], the IC50 is 2.94 µM.

DAFIAALTEALRVIA [Pha a 5 peptide, position 121, DAFIAALTEALRVIA (Peptide ID 3324.1432)] came in with a half-inhibitory concentration (IC50) of 0.031 µM.

ATPEAKFDSFVAAFT [Poa p 5 peptide, position 121, ATPEAKFD5FVAAFT as printed in Table 8 (Peptide ID 3324.1570)]: the IC50 amounted to 3.24 µM.

As to DAYVATLTEALRVIA [Lol p 5 1 peptide, position 151, DAYVATLTEALRVIA (Peptide ID 3324.1167), listing 2 of 2 here], the half-maximal inhibitory concentration (IC50) came out at 0.597 µM.

LWEVKSAKPLTGPMN [Lol p 3 peptide, position 51, LWEVKSAKPLTGPMN (Peptide ID 3337.0031)] came in with an IC50 of 0.671 µM.

The target of another experiment is T1, HLA-DP molecule DPB1*0401. The experiment is described as above.
DINVGFKAAVAAAAG [Poa p 5 peptide, position 56, DINVGFKAAVAAAAG (Peptide ID 3324.1571)] had an IC50 of 20.7 µM.

The molecule FKAAVAAAAGAPPAD [Poa p 5 peptide, position 61, FKAAVAAAAGAPPAD (Peptide ID 3324.1575)] showed an IC50 of 28.9 µM.

On to ATPEAKFDSFVAAFT [Poa p 5 peptide, position 121, ATPEAKFD5FVAAFT as printed in Table 8 (Peptide ID 3324.1570)], for which the IC50 amounted to 4.85 µM.

With DAYVATLTEALRVIA [Lol p 5 1 peptide, position 151, DAYVATLTEALRVIA (Peptide ID 3324.1167), listing 2 of 2 here], the half-maximal inhibitory concentration (IC50) was determined as 0.515 µM.

The record behind these values is patent publication US20150004189A1 (published 2015).
